# According to US20110076232A1 (published 2011):
# Ends that are not written are not given here.
# T1: 15N-labelled EGFR287-302 peptide with methionine mutated to leucine (human, not fully specified (bridges); cysteine pairing not given here; also: 15N-labelled (residues not given here))
# T1 peptide: CGADSYELEEDGVRKC
# T2: EGFR peptide 287-302 (806 peptide epitope) (human, not fully specified (bridges); printed as 287CGADSYEMEEDGVRKC302; cysteine pairing not given here)
# T2 peptide: CGADSYEMEEDGVRKC
# T3: Peptide C: LEEKKGNYVVTDH(K-Biot)-OH (biotin on the added C-terminal Lys (K-Biot))
# T3 peptide: LEEKKGNYVVTDHK
# How the values were obtained:
# [1] = biological target: wild-type epidermal growth factor receptor (wtEGFR) (human) (UniProt P00533); experiment: Scatchard, A431 cells
# [2] = biological target: C271A/C283A-EGFR (full length, on Ba/F3 cells) (human) (UniProt P00533); experiment: FACS median fluorescence, Ba/F3 cells, four clones; reference anti-FLAG M2
# [3] = biological target: wtEGFR-FLAG (N-terminally FLAG-tagged wild-type EGFR on Ba/F3 cells) (human) (UniProt P00533); experiment: FACS median fluorescence, Ba/F3 cells; reference anti-FLAG M2
# [4] = biological target: T1, 15N-labelled EGFR287-302 peptide with …; experiment: NMR, perturbation of 15N HSQC spectra
# Protocol: Samples used for NMR studies were prepared in H2O solution containing 5% ²H₂O, 70 mM NaCl and 50 mM NaPO₄ at pH 6.8.
# [5] = biological target: T2, EGFR peptide 287-302 (806 peptide …); experiment: BIAcore, immobilised peptide 287-302, antibody 200 nM
# [6] = biological target: T3, Peptide C: LEEKKGNYVVTDH(K-Biot)-OH; experiment: BIAcore, Peptide C on streptavidin chip
# Protocol: Serial dilutions of mAbs were tested for reactivity with the peptide. Blocking experiments using non-biotinylated peptide were performed to assess specificity.
molecule,measurement,setting,value
monoclonal antibody 528,binding sites per cell (sites per cell),[1],2e+06
same,receptors per cell (receptors per cell),[1],2e+06
same,ratio of antibody binding mAb 528/M2,[2],1.08
same,ratio of antibody binding mAb 528/M2,[3],1.37
"Fab fragment of mAb806 (Fab, V domains shown, papain Fab of the intact mAb; also called Fab806) VH: DVQLQESGPSLVKPSQSLSLTCTVTGYSITSDFAWNWIRQFPGNKLEWMGYISYSGNTRYNPSLKSRISITRDTSKNQFFLQLNSVTIEDTATYYCVTAGRGFPYWGQGTLVTVSA VL: DILMTQSPSSMSVSLGDTVSITCHSSQDINSNIGWLQQRPGKSFKGLIYHGTNLDDEVPSRFSGSGSGADYSLTISSLESEDFADYYCVQYAQFPWTFGGGTKLEIKR",binding result,[4],binds
"monoclonal antibody 1133 (mAb1133) (antibody, V domains shown, murine IgG2a) VH: DVQLQGSGPSLVKPSQSLSLTCTVTGYSITSDYAWNWIRQFPGNKLEWMGYISYSGNTRYNPSLRSRISITRDTSKNQFFLQLNSVTTEDTATYYCATAGRGFPYWGQGTLVTVSA VL: DILMTQSPSSMSVSLGDTVNITCHSSQDINSNIGWLQQKPGKSFKGLIYHGTNLDDGVPSRFSGSGSGADYSLTISSLESEDFADYYCVQYGQFPWTFGGGTKLEIKR",maximal binding (RU),[5],800 RU
"monoclonal antibody 806 (mAb806) (antibody, V domains shown, murine IgG2b; also called m806) VH: DVQLQESGPSLVKPSQSLSLTCTVTGYSITSDFAWNWIRQFPGNKLEWMGYISYSGNTRYNPSLKSRISITRDTSKNQFFLQLNSVTIEDTATYYCVTAGRGFPYWGQGTLVTVSA VL: DILMTQSPSSMSVSLGDTVSITCHSSQDINSNIGWLQQRPGKSFKGLIYHGTNLDDEVPSRFSGSGSGADYSLTISSLESEDFADYYCVQYAQFPWTFGGGTKLEIKR",binding result,[6],no binding (tested: 100 nM)
